According to US20250034268A1:
pEC50: −log10 of the molar value.

Key:
[1] = target: human BCMA expressed on the cell surface (human) (UniProt Q02223); test: flow cytometry on L363 cells
[2] = target: human BCMA expressed on the cell surface (human) (UniProt Q02223); test: flow cytometry on MM.1s cells
[3] = target: human BCMA expressed on the cell surface (human) (UniProt Q02223); test: flow cytometry on U266 cells
[4] = target: human BCMA expressed on the cell surface (human) (UniProt Q02223); test: flow cytometry on AMO1 cells
[5] = target: human BCMA expressed on the cell surface (human) (UniProt Q02223); test: flow cytometry on H929 cells
[6] = target: mouse BCMA expressed on CHO GS cells (mouse) (UniProt O88472); test: flow cytometry on mBCMA-CHO-GS cells
Chain of mouse BCMA expressed on CHO GS cells (mouse) (O88472 whole entry): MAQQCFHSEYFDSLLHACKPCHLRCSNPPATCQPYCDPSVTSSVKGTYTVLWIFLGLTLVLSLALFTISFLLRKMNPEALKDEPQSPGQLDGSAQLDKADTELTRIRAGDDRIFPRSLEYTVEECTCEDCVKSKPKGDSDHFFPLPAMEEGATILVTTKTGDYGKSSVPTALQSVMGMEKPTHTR

[7] = target: human BCMA expressed on the cell surface (human) (UniProt Q02223); test: flow cytometry on RPMI8226 cells
[8] = target: cynomolgus monkey BCMA expressed on CHO GS cells (cynomolgus monkey); test: flow cytometry on cynoBCMA-CHO-GS cells
Chain of cynomolgus monkey BCMA expressed on CHO GS cells (cynomolgus monkey) (chain, as listed by the source): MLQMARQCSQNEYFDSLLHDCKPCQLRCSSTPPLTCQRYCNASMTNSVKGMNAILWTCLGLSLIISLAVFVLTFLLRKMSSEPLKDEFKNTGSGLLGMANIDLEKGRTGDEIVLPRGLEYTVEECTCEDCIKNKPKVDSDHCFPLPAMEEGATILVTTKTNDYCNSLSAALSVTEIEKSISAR

[9] = target: human BCMA expressed on the cell surface (human) (UniProt Q02223); test: flow cytometry on hBCMA-CHO-GS cells

Chain of human BCMA expressed on the cell surface (human) (Q02223 whole entry): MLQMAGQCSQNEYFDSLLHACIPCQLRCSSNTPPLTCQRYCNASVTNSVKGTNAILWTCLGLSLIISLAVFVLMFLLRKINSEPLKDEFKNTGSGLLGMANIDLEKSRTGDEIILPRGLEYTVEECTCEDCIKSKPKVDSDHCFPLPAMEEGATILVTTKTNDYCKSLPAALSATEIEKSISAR

pEC50 [1]: 7.98
pEC50 [2]: 8.12
pEC50 [3]: 8.06
pEC50 [4]: 7.89
pEC50 [5]: 8.11
pEC50 [6]: 6.88
pEC50 [7]: 8.22
pEC50 [8]: 8.00
pEC50 [9]: 8.30
Substance: GSK PG antibody (BCMA antibody clone J6M0 of GSK, P329G human IgG1)
